Assay results as given in patent US12099068B2, “Biomarkers for graft-versus-host disease” (Incyte Corporation, priority 2018, dated 2024).

The molecules below were run on plasma proteins (assay: Plasma proteins modulated between baseline and day 28 in responders (CR, VGPR, PR; n = 19), Example 6 (Table 13)). Conditions: plasma protein (OLINK NPX); responders (CR, VGPR, PR; n = 19); itacitinib 200 mg or 300 mg QD with corticosteroids; day 28 vs baseline.
Assay type: in vivo, human
Method in brief: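 Longitudinal comparison, day 28 versus baseline, with steroid-naive (N=10) and steroid-refractory (N=18) patients combined. Proteins measured by OLINK proximity extension, log2 normalized protein expression. Differences tested by t tests, ANOVA, Pearson correlation, P<0.05 significant.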

Row | Molecule | Fold Change, Decreased Expression from Baseline to Day 28 | Fold Change, Increased Expression from Baseline to Day 28
1 | ST1A1 (protein, UniProt P50225 1-295, looked up) Sulfotransferase 1A1: MELIQDTSRPPLEYVKGVPLIKYFAEALGPLQSFQARPDDLLISTYPKSGTTWVSQILDMIYQGGDLEKCHRAPIFMRVPFLEFKAPGIPSGMETLKDTPAPRLLKTHLPLALLPQTLLDQKVKVVYVARNAKDVAVSYYHFYHMAKVHPEPGTWDSFLEKFMVGEVSYGSWYQHVQEWWELSRTHPVLYLFYEDMKENPKREIQKILEFVGRSLPEETVDFVVQHTSFKEMKKNPMTNYTTVPQEFMDHSISPFMRKGMAGDWKTTFTVAQNERFDADYAEKMAGCSLSFRSEL | −1.9523 | –
2 | NBN (protein, UniProt O60934 1-754, looked up) Nibrin: MWKLLPAAGPAGGEPYRLLTGVEYVVGRKNCAILIENDQSISRNHAVLTANFSVTNLSQTDEIPVLTLKDNSKYGTFVNEEKMQNGFSRTLKSGDGITFGVFGSKFRIEYEPLVACSSCLDVSGKTALNQAILQLGGFTVNNWTEECTHLVMVSVKVTIKTICALICGRPIVKPEYFTEFLKAVESKKQPPQIESFYPPLDEPSIGSKNVDLSGRQERKQIFKGKTFIFLNAKQHKKLSSAVVFGGGEARLITEENEEEHNFFLAPGTCVVDTGITNSQTLIPDCQKKWIQSIMDMLQRQGLRPIPEAEIGLAVIFMTTKNYCDPQGHPSTGLKTTTPGPSLSQGVSVDEKLMPSAPVNTTTYVADTESEQADTWDLSERPKEIKVSKMEQKFRMLSQDAPTVKESCKTSSNNNSMVSNTLAKMRIPNYQLSPTKLPSINKSKDRASQQQQTNSIRNYFQPSTKKRERDEENQEMSSCKSARIETSCSLLEQTQPATPSLWKNKEQHLSENEPVDTNSDNNLFTDTDLKSIVKNSASKSHAAEKLRSNKKREMDDVAIEDEVLEQLFKDTKPELEIDVKVQKQEEDVNVRKRPRMDIETNDTFSDEAVPESSKISQENEIGKKRELKEDSLWSAKEISNNDKLQDDSEMLPKKLLLTEFRSLVIKNSTSRNPSGINDDYGQLKNFKKFKKVTYPGAGKLPHIIGGSDLIAHHARKNTELEEWLRQEMEVQNQHAKEESLADDLFRYNPYLKRRR | −1.5879 | –
3 | DKKL1 (protein, UniProt Q9UK85 31-242, looked up) Dickkopf-like protein 1: APIHDADAQESSLGLTGLQSLLQGFSRLFLKGNLLRGIDSLFSAPMDFRGLPGNYHKEENQEHQLGNNTLSSHLQIDKMTDNKTGEVLISENVVASIQPAEGSFEGDLKVPRMEEKEALVPIQKATDSFHTELHPRVAFWIIKLPRRRSHQDALEGGHWLSEKRHRLQAIRDGLRKGTHKDVLEEGTESSSHSRLSPRKTHLLYILRPSRQL | – | 1.1495
4 | NEP (protein, UniProt P08473 2-750, looked up) Neprilysin: GKSESQMDITDINTPKPKKKQRWTPLEISLSVLVLLLTIIAVTMIALYATYDDGICKSSDCIKSAARLIQNMDATTEPCTDFFKYACGGWLKRNVIPETSSRYGNFDILRDELEVVLKDVLQEPKTEDIVAVQKAKALYRSCINESAIDSRGGEPLLKLLPDIYGWPVATENWEQKYGASWTAEKAIAQLNSKYGKKVLINLFVGTDDKNSVNHVIHIDQPRLGLPSRDYYECTGIYKEACTAYVDFMISVARLIRQEERLPIDENQLALEMNKVMELEKEIANATAKPEDRNDPMLLYNKMTLAQIQNNFSLEINGKPFSWLNFTNEIMSTVNISITNEEDVVVYAPEYLTKLKPILTKYSARDLQNLMSWRFIMDLVSSLSRTYKESRNAFRKALYGTTSETATWRRCANYVNGNMENAVGRLYVEAAFAGESKHVVEDLIAQIREVFIQTLDDLTWMDAETKKRAEEKALAIKERIGYPDDIVSNDNKLNNEYLELNYKEDEYFENIIQNLKFSQSKQLKKLREKVDKDEWISGAAVVNAFYSSGRNQIVFPAGILQPPFFSAQQSNSLNYGGIGMVIGHEITHGFDDNGRNFNKDGDLVDWWTQQSASNFKEQSQCMVYQYGNFSWDLAGGQHLNGINTLGENIADNGGLGQAYRAYQNYIKKNGEEKLLPGLDLNHKQLFFLNFAQVWCGTYRPEYAVNSIKTDVHSPGNFRIIGTLQNSAEFSEAFHCRKNSYMNPEKKCRVW | – | 1.8376
5 | IL2-RA (protein, UniProt P01589 22-272, looked up) Interleukin-2 receptor …: ELCDDDPPEIPHATFKAMAYKEGTMLNCECKRGFRRIKSGSLYMLCTGNSSHSSWDNQCQCTSSATRNTTKQVTPQPEEQKERKTTEMQSPMQPVDQASLPGHCREPPPWENEATERIYHFVVGQMVYYQCVQGYRALHRGPAESVCKMTHGKTRWTQPQLICTGEMETSQFPGEEKPQASPEGRPESETSCLVTTTDFQIQTEMAATMETSIFTTEYQVAVAGCVFLLISVLLLSGLTWQRRQRKSRRTI | −2.2452 | –
6 | Ep-CAM (protein, UniProt P16422 24-314, looked up) Epithelial cell adhesion …: QEECVCENYKLAVNCFVNNNRQCQCTSVGAQNTVICSKLAAKCLVMKAEMNGSKLGRRAKPEGALQNNDGLYDPDCDESGLFKAKQCNGTSMCWCVNTAGVRRTDKDTEITCSERVRTYWIIIELKHKAREKPYDSKSLRTALQKEITTRYQLDPKFITSILYENNVITIDLVQNSSQKTQNDVDIADVAYYFEKDVKGESLFHSKKMDLTVNGEQLDLDPGQTLIYYVDEKAPEFSMQGLKAGVIAVIVVVVIAVVAGIVVLVISRKKRMAKYEKAEIKEMGEMHRELNA | – | 1.403
7 | TMPRSS5 (protein, UniProt Q9H3S3 1-457, looked up) Transmembrane protease serine …: MSLMLDDQPPMEAQYAEEGPGPGIFRAEPGDQQHPISQAVCWRSMRRGCAVLGALGLLAGAGVGSWLLVLYLCPAASQPISGTLQDEEITLSCSEASAEEALLPALPKTVSFRINSEDFLLEAQVRDQPRWLLVCHEGWSPALGLQICWSLGHLRLTHHKGVNLTDIKLNSSQEFAQLSPRLGGFLEEAWQPRNNCTSGQVVSLRCSECGARPLASRIVGGQSVAPGRWPWQASVALGFRHTCGGSVLAPRWVVTAAHCMHSFRLARLSSWRVHAGLVSHSAVRPHQGALVERIIPHPLYSAQNHDYDVALLRLQTALNFSDTVGAVCLPAKEQHFPKGSRCWVSGWGHTHPSHTYSSDMLQDTVVPLFSTQLCNSSCVYSGALTPRMLCAGYLDGRADACQGDSGGPLVCPDGDTWRLVGVVSWGRGCAEPNHPGVYAKVAEFLDWIHDTAQDSLL | – | 1.3307
8 | TLT-2 (protein, UniProt Q5T2D2 19-321, looked up) Trem-like transcript 2 protein: GPSADSVYTKVRLLEGETLSVQCSYKGYKNRVEGKVWCKIRKKKCEPGFARVWVKGPRYLLQDDAQAKVVNITMVALKLQDSGRYWCMRNTSGILYPLMGFQLDVSPAPQTERNIPFTHLDNILKSGTVTTGQAPTSGPDAPFTTGVMVFTPGLITLPRLLASTRPASKTGYSFTATSTTSQGPRRTMGSQTVTASPSNARDSSAGPESISTKSGDLSTRSPTTGLCLTSRSLLNRLPSMPSIRHQDVYSTVLGVVLTLLVLMLIMVYGFWKKRHMASYSMCSDPSTRDPPGRPEPYVEVYLI | −1.8372 | –
9 | hK11 (protein, UniProt Q9UBX7 54-282, looked up) Kallikrein-11: IIKGFECKPHSQPWQAALFEKTRLLCGATLIAPRWLLTAAHCLKPRYIVHLGQHNLQKEEGCEQTRTATESFPHPGFNNSLPNKDHRNDIMLVKMASPVSITWAVRPLTLSSRCVTAGTSCLISGWGSTSSPQLRLPHTLRCANITIIEHQKCENAYPGNITDTMVCASVQEGGKDSCQGDSGGPLVCNQSLQGIISWGQDPCAITRKPGVYTKVCKYVDWIQETMKNN | – | 1.2975
10 | FOXO1 (protein, UniProt Q12778 1-655, looked up) Forkhead box protein O1: MAEAPQVVEIDPDFEPLPRPRSCTWPLPRPEFSQSNSATSSPAPSGSAAANPDAAAGLPSASAAAVSADFMSNLSLLEESEDFPQAPGSVAAAVAAAAAAAATGGLCGDFQGPEAGCLHPAPPQPPPPGPLSQHPPVPPAAAGPLAGQPRKSSSSRRNAWGNLSYADLITKAIESSAEKRLTLSQIYEWMVKSVPYFKDKGDSNSSAGWKNSIRHNLSLHSKFIRVQNEGTGKSSWWMLNPEGGKSGKSPRRRAASMDNNSKFAKSRSRAAKKKASLQSGQEGAGDSPGSQFSKWPASPGSHSNDDFDNWSTFRPRTSSNASTISGRLSPIMTEQDDLGEGDVHSMVYPPSAAKMASTLPSLSEISNPENMENLLDNLNLLSSPTSLTVSTQSSPGTMMQQTPCYSFAPPNTSLNSPSPNYQKYTYGQSSMSPLPQMPIQTLQDNKSSYGGMSQYNCAPGLLKELLTSDSPPHNDIMTPVDPGVAQPNSRVLGQNVMMGPNSVMSTYGSQASHNKMMNPSSHTHPGHAQQTSAVNGRPLPHTVSTMPHTSGMNRLTQVKTPVQVPLPHPMQMSALGGYSSVSSCNGYGRMGLLHQEKLPSDLDGMFIERLDCDMESIIRNDLMDGDTLDFNFDNVLPNQSFPHSVKTTTHSWVSG | −1.3557 | –
11 | GRAP2 (protein, UniProt O75791 1-330, looked up) GRB2-related adapter protein 2: MEAVAKFDFTASGEDELSFHTGDVLKILSNQEEWFKAELGSQEGYVPKNFIDIQFPKWFHEGLSRHQAENLLMGKEVGFFIIRASQSSPGDFSISVRHEDDVQHFKVMRDNKGNYFLWTEKFPSLNKLVDYYRTNSISRQKQIFLRDRTREDQGHRGNSLDRRSQGGPHLSGAVGEEIRPSMNRKLSDHPPTLPLQQHQHQPQPPQYAPAPQQLQQPPQQRYLQHHHFHQERRGGSLDINDGHCGTGLGSEMNAALMHRRHTDPVQLQAAGRVRWARALYDFEALEDDELGFHSGEVVEVLDSSNPSWWTGRLHNKLGLFPANYVAPMTR | −1.6468 | –
12 | PRDX5 (protein, UniProt P30044 53-214, looked up) Peroxiredoxin-5, mitochondrial: MAPIKVGDAIPAVEVFEGEPGNKVNLAELFKGKKGVLFGVPGAFTPGCSKTHLPGFVEQAEALKAKGVQVVACLSVNDAFVTGEWGRAHKAEGKVRLLADPTGAFGKETDLLLDDSLVSIFGNRRLKRFSMVVQDGIVKALNVEPDGTGLTCSLAPNIISQL | −2.0131 | –
13 | CPA2 (protein, UniProt P48052 115-419, looked up) Carboxypeptidase A2: SGNFNFGAYHTLEEISQEMDNLVAEHPGLVSKVNIGSSFENRPMNVLKFSTGGDKPAIWLDAGIHAREWVTQATALWTANKIVSDYGKDPSITSILDALDIFLLPVTNPDGYVFSQTKNRMWRKTRSKVSGSLCVGVDPNRNWDAGFGGPGASSNPCSDSYHGPSANSEVEVKSIVDFIKSHGKVKAFITLHSYSQLLMFPYGYKCTKLDDFDELSEVAQKAAQSLRSLHGTKYKVGPICSVIYQASGGSIDWSYDYGIKYSFAFELRDTGRYGFLLPARQILPTAEETWLGLKAIMEHVRDHPY | – | 1.7185
14 | SCGB3A1 (protein, UniProt Q96QR1 21-104, looked up) Secretoglobin family 3A …: FLVGSAKPVAQPVAALESAAEAGAGTLANPLGTLNPLKLLLSSLGIPVNHLIEGSQKCVAELGPQAVGAVKALKALLGALTVFG | – | 1.5691
